Measured values as given in paper PMC7934869 (2021).

Experiments:
[1] = target: T1, recombinant Plasmodium falciparum circumsporozoite protein (rPfCSP) (Plasmodium falciparum 3D7, UniProt Q7K740 19-374); experiment: ITC; first site (KD1)
[2] = target: T1, recombinant Plasmodium falciparum …; experiment: ITC; second site (KD2)

T1 sequence (Q7K740 19-374): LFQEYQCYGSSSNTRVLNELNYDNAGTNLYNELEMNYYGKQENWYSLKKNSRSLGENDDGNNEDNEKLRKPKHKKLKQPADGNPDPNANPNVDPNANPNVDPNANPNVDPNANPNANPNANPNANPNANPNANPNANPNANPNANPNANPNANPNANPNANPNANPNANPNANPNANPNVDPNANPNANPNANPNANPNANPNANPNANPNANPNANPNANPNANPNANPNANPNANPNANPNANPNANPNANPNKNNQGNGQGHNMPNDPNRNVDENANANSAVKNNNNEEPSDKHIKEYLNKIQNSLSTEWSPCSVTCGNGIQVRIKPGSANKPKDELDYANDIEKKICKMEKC

B1: CIS43 human monoclonal antibody (antibody, V domains shown)
VH: QVQLVQSGAEVKKPGASVKVSCKASGYTFTSYAIHWVRQAPGQRLEWMGWIKAGNGNTRYSQKFQDRVTITRDTSTTTAYMELSSLRSEDTAVYYCALLTVLTPDDAFDIWGQGTMVTVSS
VL: not shown
[1]
  Kd: 7.9 nM
[2]
  Kd: 42 nM
